This note sets out measurements from paper PMC9166766.

For this test, the target named is GAL4 DBD-tagged VIVIT PPTP chimeric peptide. The test can be described thus: two-hybrid; mammalian two-hybrid in HEK293T cells: GAL4 DBD-tagged peptides, VP16 activation domain-tagged CNAβ2 and pG5-luc cotransfected for 24 h, luciferase read-out; Fig. 4b with or without 1 μM ionomycin.

VP16 activation domain-tagged CNAβ2: the fold change of the two-hybrid signal against L-1-2 WT turned out to be 1.93 fold and the fold change of the two-hybrid signal against VIVIT 10-mer stood at 4.76 fold.
